Test results as given in patent US20230110287A1 (SCOUT BIO, published 2023).

Columns and labels:
mouse (murine) NGF [1] = target: T1, mouse (murine) NGF (mouse, UniProt P01139 122-241, limits assumed); assay: ELISA on murine NGF, Abs 450
T1 construct: also called muNGF; beta muNGF

[2] = target: NGF (added at 10 ng/mL to TF-1 cell cultures); assay: cell-based or functional assay
mouse (murine) NGF [3] = target: T1, mouse (murine) NGF; assay: ELISA on plate-coated murine NGF (0.1 ug/ml), detection with goat anti-feline IgG-HRP, Abs 450
Description: ELISA plates were coated with 0.1 μg/ml mouse (murine) NGF (muNGF) and blocked with PBS/0.05% Tween 20/1% BSA. muNGF-coated wells were then incubated for 1 hour at room temperature with antibody preparations, diluted in PBS/0.05% Tween 20/1% BSA (100 μl/well). Antibody concentrations ranging from 100 ng/ml to 1.56 ng/ml were used to establish a binding curve. After washing, the plates were incubated with a 1/5,000 dilution of goat anti-feline IgG-HRP in PBS/0.05% Tween 20/1% BSA. Plates were washed with PBS/0.05% Tween 20 and developed by the addition of TMB substrate. Development was stopped by the addition of 2M H₂SO₄, absorbance read at 450 nm and background values were subtracted from the absorbance readings.

T1 sequence (P01139 122-241 limits assumed): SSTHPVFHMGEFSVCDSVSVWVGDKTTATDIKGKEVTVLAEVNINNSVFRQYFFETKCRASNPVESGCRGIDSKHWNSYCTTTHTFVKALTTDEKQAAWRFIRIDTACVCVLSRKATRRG
Sequence of NGF (added at 10 ng/mL to TF-1 cell cultures) (P01138 122-241): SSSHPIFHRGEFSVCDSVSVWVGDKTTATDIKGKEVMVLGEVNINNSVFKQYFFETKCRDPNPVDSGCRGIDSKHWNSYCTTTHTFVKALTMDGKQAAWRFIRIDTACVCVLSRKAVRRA

Binder | binding result (mouse (murine) NGF [1]) | IC50 (read off the curve), NGF-driven TF-1 cell proliferation [2] [mg/L] | binding result (mouse (murine) NGF [3])
caninized anti-NGF monoclonal antibody SCB01 (antibody, V domains shown) VH: EVTLQESGPGLVKPSQTLSLTCVVSGLSLTNNNVNWVRQRPGRGLEWMGGVWAGGATDYNSALKSRISITRDTAKNQVSLQLSSMTTEDTAVYYCARDGGYSSSTLYAMDAWGQGTLVTVSS VL: EIVMTQSPASLSLSQEEKVTITCRASEDIYNALAWYQQKPGQAPKLLIYNTDTLHTGVPSRFSGSGSGTDYSFTISSLEPEDVAVYFCQHYFHYPRTFGAGTKVELK | binds |  | 
felinized anti-NGF monoclonal antibody Fe1 (antibody, V domains shown, Expressed in CHO cells) VH: QVQLMESGADLVQPSESLRLTCVASGLSLTNNNVNWVRQAPGKGLEWMGGVWAGGATDYNSALKSRLTITRDTSKNTVFLQMHSLQSEDTATYYCARDGGYSSSTLYAMDAWGQGTTVTVSA VL: DIEMTQSPLSLSATPGETVSISCRASEDIYNALAWYLQKPGRSPRLLIYNTDTLHTGVPDRFSGSGSGTDFTLKISRVQTEDVGVYFCQHYFHYPRTFGQGTKLELKR |  | ~0.05 | binds
